Target: L-selectin (CD62L) on Jurkat T cells (human (endogenous in Jurkat)) (UniProt P14151)
Experiment: flow cytometry on cells

Sequence of UniProt P14151 (P14151 39-372): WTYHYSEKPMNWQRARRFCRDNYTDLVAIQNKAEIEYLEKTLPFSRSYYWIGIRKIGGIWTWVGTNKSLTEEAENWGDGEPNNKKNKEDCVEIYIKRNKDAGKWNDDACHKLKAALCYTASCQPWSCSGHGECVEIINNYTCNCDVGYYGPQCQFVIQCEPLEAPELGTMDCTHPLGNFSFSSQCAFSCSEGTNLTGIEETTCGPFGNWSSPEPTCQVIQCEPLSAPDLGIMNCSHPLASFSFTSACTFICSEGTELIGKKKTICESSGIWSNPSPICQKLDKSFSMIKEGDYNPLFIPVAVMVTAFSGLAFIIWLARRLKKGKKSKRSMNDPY

Substance | fold binding (MFI) with DREG-55 mAb, relative to the DREG-200 mAb sample
Human E-selectin-Fc chimera (from UniProt P16581 22-556) (Fc fusion) | 1.4 fold
Human PSGL-1-Fc chimera (from UniProt Q14242 42-320) (Fc fusion) | 1.6 fold

Source: PMC3921101
